Measurements from patent publication US20190271021A1.

Molecular target: human TrkB on CHO cells (CHO-K1-hTrkB/pSRE-Luc) (human) (UniProt Q16620)
Experiment: cell-based or functional assay

human TrkB on CHO cells (CHO-K1-hTrkB/pSRE-Luc) (human), sequence (Q16620 32-822): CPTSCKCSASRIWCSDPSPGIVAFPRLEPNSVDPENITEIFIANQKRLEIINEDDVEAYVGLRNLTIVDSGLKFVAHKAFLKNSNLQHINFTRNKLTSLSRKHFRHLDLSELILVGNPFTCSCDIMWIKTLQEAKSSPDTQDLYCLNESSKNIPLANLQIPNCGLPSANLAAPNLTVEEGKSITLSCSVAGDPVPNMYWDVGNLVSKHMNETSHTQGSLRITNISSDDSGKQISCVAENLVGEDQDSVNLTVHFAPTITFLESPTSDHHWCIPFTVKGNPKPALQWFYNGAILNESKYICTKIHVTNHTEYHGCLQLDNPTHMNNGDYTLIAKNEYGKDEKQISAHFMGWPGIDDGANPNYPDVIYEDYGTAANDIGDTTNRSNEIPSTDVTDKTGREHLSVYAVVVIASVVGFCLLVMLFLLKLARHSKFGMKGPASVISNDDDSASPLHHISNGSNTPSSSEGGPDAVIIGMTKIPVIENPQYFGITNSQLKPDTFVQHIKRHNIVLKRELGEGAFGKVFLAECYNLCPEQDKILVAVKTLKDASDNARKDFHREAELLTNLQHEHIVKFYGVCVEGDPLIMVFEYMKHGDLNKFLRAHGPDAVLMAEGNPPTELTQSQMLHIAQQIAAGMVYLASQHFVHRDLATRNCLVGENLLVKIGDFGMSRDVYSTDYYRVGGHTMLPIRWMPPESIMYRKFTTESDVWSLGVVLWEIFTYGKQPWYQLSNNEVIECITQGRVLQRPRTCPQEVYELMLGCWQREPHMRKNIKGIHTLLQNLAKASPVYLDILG

For “complex of pre-pro(IgA)-BDNF(-RGR)_opsin(L)-(G3D)4-G3S_VH<TfR>8D3-CH1-His6, anti-transferrin receptor antibody light chain and not-fused pre-pro(IgA)-BDNF(-RGR)-opsin(L)-T7-His6”, the relative BDNF activity in TrkB luciferase assay, EC50 [%] was 60%.
For “complex of pre-pro(IgA)-BDNF(-RGR)_opsin(L)-(G3D)4-G3S_VH<TfR>8D3-CH1-His6, anti-transferrin receptor antibody light chain and not-fused pre-pro(IgA)-BDNF(-RGR; R81N)-His6 (from UniProt P23560 1-244)”, the relative BDNF activity in TrkB luciferase assay, EC50 [%] was 80%.
“complex of pre-pro(IgA)-BDNF(-RGR; R81N)_opsin(L)-(G3D)4-G3S_VH<TfR>8D3-CH1-His6, anti-transferrin receptor antibody light chain and not-fused pre-pro(IgA)-BDNF(-RGR; R81N)-His6 (from UniProt P23560 1-244)” gave a relative BDNF activity in TrkB luciferase assay, EC50 [%] of 110%.
“pre-pro(IgA)-BDNF(-RGR)_opsin(L)-(G3D)4-G3S_VH<TfR>8D3-CH1-His6 with chimeric rat/human anti-transferrin receptor antibody light chain” showed a relative BDNF activity in TrkB luciferase assay, EC50 [%] of 200%.
With “pre-pro-BDNF(-RGR; K25N; T35N; Q79T)-T7-His6 (ligand)” the BDNF activity in TrkBluciferase assay, EC50 [% or nM] was 2830%.
